# From article PMC8047169
# B1: His-CowN (Gluconacetobacter diazotrophicus CowN, His-tagged, refolded, monomeric fraction) (natural protein)
# chain: MTEQIDRYVSFRNVEWERRTAEVFALLQPHFDGSTSPFWDYFLRQRVIAHAQGLDDLRVLHNFLPTLKDLLEELDDERTLSRLEELEVLCM
# Assays:
# [1] = biological target: molybdenum-iron protein (MoFeP) of Gluconacetobacter diazotrophicus Mo-nitrogenase (Gluconacetobacter diazotrophicus)
# [2] = biological target: molybdenum-iron protein (MoFeP) of Gluconacetobacter diazotrophicus Mo-nitrogenase (Gluconacetobacter diazotrophicus); remark: listed apart in the source
binder,measurement,setting,value
B1,"nitrogenase C2H2 reduction activity under 0.1 atm CO with 2 μM CowN against no CowN (0.2 μM MoFeP, 2 μM FeP)",[1],9 fold
same,"KD^app from a hyperbolic fit of nitrogenase C2H2 reduction activity against CowN concentration under 0.001 atm CO (MoFeP with FeP, turnover conditions)",[2],400 nM
same,"KD^app from a hyperbolic fit of nitrogenase C2H2 reduction activity against CowN concentration under 0.1 atm CO (MoFeP with FeP, turnover conditions)",[2],1080 nM
